B1: S5-175 (antibody, V domains shown)
VH: QAYLQQSGAVLARPGASVRMSCKASGYSFTSYYMHWVKQRPGQGLEWIGAIYPGNSDTSYNQKFKGKAKLTAVTSASTAYMEVSSLTNEDSAVYYCTPLVRPRPYGMDYWGQGTSVTVSS
VL: DVVLTQSTSSLSASLGDRVTISCRASQDISNYLNWYQQKPDGTVKLLIYYTSRLHSGVPSRFSGSGSGTDYSLTISNLEQEDIATYFCQQGNTLPWTFGGGTKLEIK
notes: Mouse-derived variable domains; expressed in mammalian cells as full antibody; hIgG1 isotype control
B2: S5-G-07 (antibody, V domains shown)
VH: QAYLQQSGAELARPGASVKMSCKASGYTFSSYTMYWVKQRPGQGLEWIGYINPSSGYTEYNQKFKDKATLTADKSSSTAYMQLISLTSEDSAVYYCARSDSKGDYWGQGTTLTVSS
VL: DVVMTQSPSSLSASLGERVSLTCRASQDIGNSLNWLQQEPDGTIKRLISATSSLDSGVPKRFSGSRSGSDYSLTISSLESEDFVDYYCLQYASSPLTFGAGTKLELK
notes: Mouse-derived variable domains; expressed in mammalian cells as full antibody; hIgG1 isotype control; also called SG-5-07
B3: S5-G-10 (antibody, V domains shown)
VH: QAYLQQSGAELVKPGASVKLSCKASGYIFTEYTIHWVKQRSGQGLEWIGWFYPGSGSIKYNEKFKDKATLTADKSSSTVYMELSRLTSEDSAVYFCATHERAAQAAWSAYWGQGTLVTVSA
VL: DVQMNQSPASLSASVGETVTITCRASGNIHNYLAWYQQKQGKSPQLLVYNAKTLTDGVPSRFSGSGSGTQYSLKINTLQPEDFGSYYCQHFWSTPYTFGGGTKLEMK
notes: as for B1
B4: S5-174 (antibody, V domains shown)
VH: QAYLQQSGAELVKPGTSVKLSCKASGYTFTNYWMHWVKQRPGQGLEWVGEIDPSDGYVTYNQNFKGKATLTVDRSSSTAYMQLSSLTSEDSAVYYCAGVYYGNSIYYAMDYWGQGTSVTVSS
VL: DIQMTQTRNFMSTSVGDRVNITCKATQDVGTAVAWYQVKPGQSPKLLIYWTSTRHTGVPDRFTGSGSGTDFTLTIKNVQSEDLADYFCQQYRSYPFTFGSGTKLEIK
notes: as for B1
B5: S5-172 (antibody, V domains shown)
VH: QAYLQQSGPELVKPGASVKVSCKASGYSLTDYNMYWVKQSHGKSLEWIGYIDSYNGGTRYNQKFKGKATLTVDKSSSTAFMHLNSLTSEDSAVYYCAREGFGYDDREWFAYWGQGTLVTVSA
VL: DIVLTQTPLSLAVSVGEKVTMNCKSSQSLLYSTNQMTFLAWYQQKPGQSPKLLIYWASTRESGVPDRFTGSGSGTDFTLTISSVKAEDLAIYYCQQFYTYPFTFGSGTKLEIR
notes: as for B1
B6: S5-190 (antibody, V domains shown)
VH: B5 VH
VL: DIQMTQTPSSLAVSVGEKVTLSCKSSQSLLYSTNQMNFLAWYQQKPGQSPKLLIYWASTRESGVPDRFAGSGSGTDFTLTISSVKAEDLAVYYCQQFYSYPFTFGSGTELEIK
notes: Mouse-derived variable domains; same VH entry as S5-172; expressed in mammalian cells as full antibody; hIgG1 isotype control
B7: S5-G-03-H7 (antibody, V domains shown)
VH: EVQLLQSGGGLVQPGGSLRLSCAASGFTFSTYGMSWVRQAPGKGLELVATINSNGDNTYYADSVKGRFTISRDNSKNTLYLQMNSLRAEDTAVYYCARAWPSITTVFAPYTLDYWGQGTLVTVSS
VL: DIQMTQSPSSLSASVGDRVTITCRASSSVSSSFLHWYQQKPGKAPKLLIYSTSNLASGVPSRFSGSGSGTDFTLTISSLQPEDFATYYCQQYSGYPLTFGQGTKLEIK
notes: Humanized variant of S5-G-03; also called S5-G03-H3L1
B8: S5-G-03-H9 (antibody, V domains shown)
VH: B7 VH
VL: B7 VL with M4L, I21M, L48W, F72Y, L79V
notes: Humanized variant of S5-G-03; also called S5-G03-H3L3

Substitutions are numbered along the chain they refer to. Where only a bound is given, the exact number is not on record here.

In one assay the target is T1, human Siglec-14 (human, UniProt Q08ET2 17-396).
T1 construct: also called CHO-S14; CHO-S hSiglec-14
T1 sequence: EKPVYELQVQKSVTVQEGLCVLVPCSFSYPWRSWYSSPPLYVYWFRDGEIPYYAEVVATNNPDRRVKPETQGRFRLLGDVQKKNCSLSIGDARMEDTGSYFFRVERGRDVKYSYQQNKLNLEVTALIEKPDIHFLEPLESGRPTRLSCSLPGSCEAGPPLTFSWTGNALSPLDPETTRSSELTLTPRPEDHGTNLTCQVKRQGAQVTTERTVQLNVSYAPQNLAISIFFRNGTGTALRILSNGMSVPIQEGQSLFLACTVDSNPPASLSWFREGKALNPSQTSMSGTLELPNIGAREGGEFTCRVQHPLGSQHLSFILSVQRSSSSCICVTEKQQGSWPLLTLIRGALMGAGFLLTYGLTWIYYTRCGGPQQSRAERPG
Description: FACS, CHO cells stably transfected with human Siglec-14 (CHO-S14), fluorescent secondary antibody; y-axis Binding (Fold over background); antibody concentration not shown. The method, then: The anti-Siglec-5 antibodies were evaluated for their ability to bind to CHO cells which were stably transfected with human Siglec-5 (CHO-S5) or human Siglec-14 (CHO-S14). The anti-Siglec-5 antibodies were also evaluated for their ability to bind to primary human neutrophils. Cells were incubated with various dilutions of the anti-Siglec-5 antibodies for 30 minutes on ice in the dark, followed by a 30-minute incubation with a fluorescently-conjugated anti-human IgG secondary antibody. Cells were washed twice in FACS buffer (PBS+2% FBS, 2 mM EDTA), and flow cytometry was performed on a BD FACS Canto. Data were analyzed using FlowJo software (Ashland, Oreg.). In the figures, “hIgG1” and “mIgG1” refer to isotype control antibodies, and “S5/14 1A5” refers to a commercially available antibody that binds both Siglec-5 and Siglec-14 (BioLegend, clone 1A5).
Background: A flow cytometer gives signals particle by particle.
For the molecule B1, the binding result is “no binding”.
On to B2, for which the binding result is on record as “no binding”.
Same read-out and setting: under B3 stands “no binding”; under B4, “no binding”.
As to B5, the binding result was “no binding”.
As to B6, the binding result is on record as “no binding”.

Another assay has as its target T2, Histidine-tagged human Siglec-5 (NovoProtein) (human, UniProt O15389 17-434, limits assumed).
T2 construct: Bought soluble protein; also called His-tagged human Siglec-5; not shown: histidine tag
T2 sequence: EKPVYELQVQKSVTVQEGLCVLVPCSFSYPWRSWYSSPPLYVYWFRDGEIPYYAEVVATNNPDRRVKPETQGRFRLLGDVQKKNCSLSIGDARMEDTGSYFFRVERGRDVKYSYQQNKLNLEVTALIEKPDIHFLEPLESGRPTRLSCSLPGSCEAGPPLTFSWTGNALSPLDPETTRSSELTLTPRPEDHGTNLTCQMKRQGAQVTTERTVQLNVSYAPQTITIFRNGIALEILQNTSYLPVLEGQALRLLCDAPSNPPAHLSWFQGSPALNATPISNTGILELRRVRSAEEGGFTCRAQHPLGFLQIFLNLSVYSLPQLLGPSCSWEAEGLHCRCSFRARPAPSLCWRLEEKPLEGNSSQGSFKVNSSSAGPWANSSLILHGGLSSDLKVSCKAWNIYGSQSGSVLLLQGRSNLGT
Kind of assay: array SPR, antibody immobilized, His-tagged human Siglec-5 (0-500 nM) in solution; apparent affinity. The protocol: The apparent binding affinities of the anti-Siglec-5 antibodies were measured by array surface plasmon resonance (SPR), according to standard techniques (Abdiche, et al. (2016) MAbs 8:264-277). Briefly, anti-Siglec-5 antibodies were immobilized on a HC 30M chip at four different densities, at antibody concentration of 10 μg/mL, 2.5 μg/mL, 0.63 μg/mL, and 0.16 μg/mL. Varying concentrations (0-500 nM) of Histidine-tagged human Siglec-5 or cynomolgus Siglec-5 (NovoProtein) were then bound to the captured anti-Siglec-5 surface (5 min injection time, 15 min dissociation time) in HBS-EP⁺/1 mg/mL BSA running buffer. Kinetic analysis was performed using Carterra software to extract association and dissociation rate constants (kₐ and kd, respectively) for each antibody. Apparent affinity constants (KD) were calculated from the ratio kd/kₐ. None of the anti-Siglec-5 antibodies bound to cynomolgus Siglec-5 protein.
In general, koff refers to the first-order rate constant of dissociation. Usually kon stands for a measure of how fast the partners come together. As for B1, the Kd was determined as 15 nM, the koff was 0.00045 s⁻¹ and the kon was found to be 29000 M⁻¹ s⁻¹.
In the same order, the values of B2 are ≤ 0.42 nM, ≤ 1e-05 s⁻¹ and 24000 M⁻¹ s⁻¹.
As to B3, the Kd was determined as 79 nM, the koff is 0.00068 s⁻¹ and the kon worked out at 8600 M⁻¹ s⁻¹.
For B4, in that order: 1.7 nM, 0.00043 s⁻¹ and 250000 M⁻¹ s⁻¹.
With B5, the Kd stood at 1.5 nM, the off-rate constant (koff) is 0.00053 s⁻¹ and the kon is 350000 M⁻¹ s⁻¹.
For B6, in that order: 0.85 nM, 0.00046 s⁻¹ and 540000 M⁻¹ s⁻¹.

A further assay deals with T3, human Siglec-5 (human, UniProt O15389 17-551).
T3 construct: also called CHO-S5; CHO-S hSiglec-5
T3 sequence: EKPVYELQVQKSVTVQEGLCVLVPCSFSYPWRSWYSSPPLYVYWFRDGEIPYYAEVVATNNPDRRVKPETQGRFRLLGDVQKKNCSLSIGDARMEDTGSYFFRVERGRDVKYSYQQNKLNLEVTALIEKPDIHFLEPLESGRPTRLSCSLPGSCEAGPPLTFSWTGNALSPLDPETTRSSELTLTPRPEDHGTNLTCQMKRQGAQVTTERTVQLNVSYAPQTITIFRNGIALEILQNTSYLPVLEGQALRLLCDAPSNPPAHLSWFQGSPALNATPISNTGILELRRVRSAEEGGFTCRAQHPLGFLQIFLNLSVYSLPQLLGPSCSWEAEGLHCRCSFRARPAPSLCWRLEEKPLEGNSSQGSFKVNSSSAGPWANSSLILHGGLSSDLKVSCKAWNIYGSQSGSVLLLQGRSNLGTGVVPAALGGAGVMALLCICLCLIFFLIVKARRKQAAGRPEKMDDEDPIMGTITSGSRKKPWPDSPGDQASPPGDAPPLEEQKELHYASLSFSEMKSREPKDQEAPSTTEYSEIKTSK
Description: FACS titration, CHO-S hSiglec-5 cells, anti-human IgG secondary; y-axis Fold over isotype, x-axis Antibody (nM), log scale. The protocol:
(§1) CHO cells were incubated with increasing concentrations of anti-Siglec-5 antibody, as indicated on the x-axis of each plot. The binding of anti-Siglec-5 antibodies to the surface of CHO cells was then measured by FACS. The y-axis provides the binding of each indicated anti-Siglec-5 antibody to the surface of CHO cells relative to hIgG1 isotype control antibodies. S5-174-H2L1 refers to antibody S5-174-H3; S5-174-H3L1 refers to antibody S5-174-H5; S5-174-H3L2 refers to antibody S5-174-H6; S5-174-H4L1 refers to antibody S5-174-H7; S5-174-H4L2 refers to antibody S5-174-H8; S5-G03-H2L1 refers to antibody S5-G-03-H4; S5-G03-H2L2 refers to antibody S5-G-03-H5; S5-G03-H3L1 refers to antibody S5-G-03-H7; S5-G03-H3L2 refers to antibody S5-G-03-H8; and S5-G03-H3L3 refers to antibody S5-G-03-H9.
(§2) Various anti-Siglec-5 antibodies of the present disclosure were evaluated for their ability to bind to CHO cells which were stably transfected with human Siglec-5 (CHO-S5) or human Siglec-14 (CHO-S14). Cells were incubated with various dilutions of anti-Siglec-5 antibodies for 30 minutes on ice in the dark, followed by a 30-minute incubation with a fluorescently conjugated anti-human IgG secondary antibody. Cells were then washed twice in FACS buffer (PBS+2% FBS, 2 mM EDTA), and flow cytometry was performed on a BD FACS Canto. Data were analyzed using FlowJo software (Ashland, Oreg.). In FIG. 9, hIgG1 refers to isotype control antibodies; S5-174-H2L1 refers to antibody S5-174-H3; S5-174-H3L1 refers to antibody S5-174-H5; S5-174-H3L2 refers to antibody S5-174-H6; S5-174-H4L1 refers to antibody S5-174-H7; S5-174-H4L2 refers to antibody S5-174-H8; S5-G03-H2L1 refers to antibody S5-G-03-H4; S5-G03-H2L2 refers to antibody S5-G-03-H5; S5-G03-H3L1 refers to antibody S5-G-03-H7; S5-G03-H3L2 refers to antibody S5-G-03-H8; and S5-G03-H3L3 refers to antibody S5-G-03-H9.
Consider B7, for which the binding result was “binds”.
Same read-out and setting: the value for B8 was “binds”.

The next assay has as its target T1, human Siglec-14. Description: FACS titration, CHO-S hSiglec-14 cells, anti-human IgG secondary; y-axis Fold over isotype, x-axis Antibody (nM), log scale; the same flat line on CHO-S Parental cells. The method, then: as §1, §2
For B7, the binding result is “no binding (tested: last point between 1 and 10 nM)”.
For the molecule B8, the binding result was “no binding (tested: last point between 1 and 10 nM)”.

These data come from patent US20210395361A1 (Alector, published 2021).
